Results published in patent US20220041691A1, “METHODS FOR DIAGNOSING OR TREATING POST-TRAUMATIC STRESS DISORDER, AND COMPOSITIONS THEREFOR” (Centre for Addiction and Mental Health, priority 2018, published 2022).
“Also recorded” adds a separate entry of the source. Read-outs that look alike come from different tables or passages of the source. One block for each molecule: values may come before it. Ends that are not written are not given here.

Legend:
FKBP51 = biological target: T1, FKBP51 (Mus musculus, UniProt Q64378); test: GST pull-down of FKBP51 by GST-GR fragments in mouse brain tissue; format: binding
T1 construct: from tissue; host or cells: mouse brain
T1 sequence (Q64378 1-456): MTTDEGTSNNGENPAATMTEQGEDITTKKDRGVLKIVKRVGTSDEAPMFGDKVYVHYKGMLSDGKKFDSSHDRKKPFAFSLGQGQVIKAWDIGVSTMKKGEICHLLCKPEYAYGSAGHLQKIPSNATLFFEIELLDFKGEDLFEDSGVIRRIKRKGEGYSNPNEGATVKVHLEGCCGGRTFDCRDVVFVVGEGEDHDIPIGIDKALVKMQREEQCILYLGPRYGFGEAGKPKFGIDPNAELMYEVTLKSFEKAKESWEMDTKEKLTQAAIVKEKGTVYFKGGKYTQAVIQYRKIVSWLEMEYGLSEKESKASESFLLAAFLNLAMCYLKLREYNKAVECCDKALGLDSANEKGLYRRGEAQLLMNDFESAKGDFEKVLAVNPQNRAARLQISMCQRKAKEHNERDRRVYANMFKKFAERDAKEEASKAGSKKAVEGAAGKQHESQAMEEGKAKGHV
From the text: The present inventors identified that if increased GR-FKBP51 complex levels are part of the pathophysiology of PTSD, then disrupting the complex may rescue behaviors related to PTSD. To develop an agent (in this example, a peptide-based agent) capable of blocking the GR-FKBP51 interaction, experiments were first performed to identify the regions of the GR that are important to bind FKBP51 (and vice versa). Initially, GST-fusion proteins were used encoding the amino-terminus (NT) of GR (GRNT) and the carboxyl-terminus (CT) of GR (GRCT) for affinity purification. […] Extending this strategy, GRNT fragments were examined (see FIG. 8, where the 6 tested GRNT fragments, NT-1, NT-2, NT-3, NT-4, NT-5, and NT-6 are shown). […] Similarly, it was determined that the TPR (tetratricopeptide repeat) domains of FKBP51 bind GR (FIG. 2D). In these studies, GST-fusion proteins of 3 different portions of the FKBP51 protein were prepared (FK1, FK2, and TPR, see FIG. 9) and tested. The TPR fragment was identified as containing the relevant interaction region.
GST-fusion proteins encoding truncated GR fragments were amplified by PCR from full-length human cDNA clones. All constructs were sequenced to confirm the absence of PCR-generated errors. GST-fusion proteins were prepared from bacterial lysates with glutathione sepharose 4B beads as instructed by the manufacturer (Amersham).^25 To construct GST-fusion proteins encoding truncated GR, cDNA fragments were amplified by using PCR with specific primers. 5′ and 3′ oligonucleotides incorporated with specific restriction enzyme sites were used to facilitate sub-cloning into the pGEX-4T3 vector. To confirm appropriate splice fusion and correct nucleotide sequences, all constructs were re-sequenced.

FKBP51-TPR = biological target: T2, FKBP51-TPR (Homo sapiens, UniProt Q13451); test: Surface plasmon resonance, binding of FKBP51 TPR domain to GR and its phosphorylation mutants; details: Flag-tagged GR immobilized on sensor chip, 25° C.
T2 construct: made in house; host or cells: bacteria
T2 sequence (Q13451 258-457): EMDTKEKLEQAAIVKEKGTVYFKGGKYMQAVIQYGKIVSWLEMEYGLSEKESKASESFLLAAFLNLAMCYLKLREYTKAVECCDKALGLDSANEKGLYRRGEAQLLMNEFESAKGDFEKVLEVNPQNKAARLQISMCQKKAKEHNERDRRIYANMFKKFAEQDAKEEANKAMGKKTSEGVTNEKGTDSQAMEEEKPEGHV
Description: The binding of FKBP51 TPR domain to GR and its phosphorylation mutants was determined by surface plasmon resonance using a Reichert SR7500DC instrument. Experiments were conducted at 25° C. with 2000 RU HEK293 expressed FLAG-tagged GR bound onto a FLAG antibody-coated Dextran 50,000 Da chip. Running buffer (PBS, pH 7.4 with 0.005% Tween 20) was used with a flow rate of 25 μl/min. With association time of 300s and dissociation of 240s, binding signals were determined by injecting various concentrations of the GST-FKBP51_TPR.

[1] = biological target: T3, FK506 Binding Protein 51 (FKBP51), endogenous, mouse brain / mouse lymphocyte lysate (mouse, UniProt Q64378 1-456); test: GST pull-down from mouse brain tissue, Western blot
T3 construct: Endogenous protein in tissue lysate; also called mouse FKBP51
T3 sequence (looked up): T1 sequence (Q64378 1-456)

[2] = biological target: T4, glucocorticoid receptor (GR), endogenous, mouse brain / mouse lymphocyte lysate (mouse, UniProt P06537 1-792, limits assumed); test: as above
T4 construct: Endogenous protein in tissue lysate; other cellular proteins are present in the co-IP and pull-down experiments; also called mouse GR
T4 sequence (looked up): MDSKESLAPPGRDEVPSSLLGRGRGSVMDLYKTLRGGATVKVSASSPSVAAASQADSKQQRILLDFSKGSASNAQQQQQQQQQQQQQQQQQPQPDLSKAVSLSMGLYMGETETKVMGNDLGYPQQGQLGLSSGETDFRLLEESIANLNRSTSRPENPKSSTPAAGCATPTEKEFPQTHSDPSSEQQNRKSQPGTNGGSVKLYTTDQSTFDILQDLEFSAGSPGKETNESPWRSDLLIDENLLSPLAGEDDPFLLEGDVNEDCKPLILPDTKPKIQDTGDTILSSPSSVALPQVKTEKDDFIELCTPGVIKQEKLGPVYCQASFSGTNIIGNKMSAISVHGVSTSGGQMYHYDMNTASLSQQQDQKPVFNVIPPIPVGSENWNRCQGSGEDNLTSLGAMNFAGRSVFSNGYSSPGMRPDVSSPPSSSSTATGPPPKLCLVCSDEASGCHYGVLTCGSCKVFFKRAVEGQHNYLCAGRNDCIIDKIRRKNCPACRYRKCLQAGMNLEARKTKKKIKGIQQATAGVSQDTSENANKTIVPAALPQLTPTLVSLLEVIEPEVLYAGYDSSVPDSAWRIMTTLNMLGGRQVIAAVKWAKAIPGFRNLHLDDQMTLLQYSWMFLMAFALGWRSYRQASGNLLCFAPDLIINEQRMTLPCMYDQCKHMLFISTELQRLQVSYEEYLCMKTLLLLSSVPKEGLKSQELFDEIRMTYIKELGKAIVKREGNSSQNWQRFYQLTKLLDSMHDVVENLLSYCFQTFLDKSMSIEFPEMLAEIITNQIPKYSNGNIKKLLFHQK

pull-down (precipitation) of FKBP51 by GST-GR fragment, Western blot (FKBP51): can “pull-down”
Molecule: GST-GRNT4-1: GST-fusion protein of GR fragment SPWRSDLLIDENCLL (S211-L225) (also: GST fusion protein)

Kd (FKBP51-TPR; figure legend values, read-out: KD for binding FKBP51-TPR (SPR)): 3.31 µM
Kd (FKBP51-TPR; read-out: KD for binding FKBP51 (SPR)): 3.31 ± 0.04 µM
Molecule: WT GR: Flag-tagged wild-type glucocorticoid receptor expressed in HEK293

binding result [2]: no binding
B2: GST-TPR2 (other)
chain: ESKASESFLLAAFLNLAMCYLKLREYTKAVECCDKALGLDSANEKGLYRR
modifications: cysteine pairing not given here; also: GST tag fusion, linker not given here
notes: also called FKBP51TPR-2; not shown: glutathione S-transferase (GST) tag; vector stated only for the GR fragments (pGEX-4T3)

binding result [1]: no binding
B5: GST-GRNT6 (other)
chain: FNVIPPIPVGSENWNRCQGSGDDNLTSLGTLNFPGRTVFSNGYSSPSMRPDVSSPPSSSSTATTGPPPKL
notes: not shown: glutathione S-transferase (GST) tag from the pGEX-4T3 vector

binding result [1]: no binding
B8: GST-GRNT3 (other)
chain: SSASTAVSAAPTEKEFPKTHSDVSSEQQHLKGQTGTNGGNVKLYTTDQSTFDILQDLEFSSGSPGKETNE
notes: as for B5

pull-down (precipitation) of FKBP51 by GST-GR fragment, Western blot (FKBP51): can “pull-down”
pull-down (precipitation) of FKBP51 by GST-GR fragment, Western blot (FKBP51; listed as NT-4): best precipitation of FKBP51
B10: GST-GRNT4: GST-fusion protein of GRNT fragment 4 (protein)
chain: SPWRSDLLIDENCLLSPLAGEDDSFLLEGNSNEDCKPLILPDTKPKIKDNGDLVLSSPSNVTLPQVKTEK
modifications: also: GST fusion protein

binding result [2]: no binding
B11: GST-FK2 (other)
chain: EDGGIIRRTKRKGEGYSNPNEGATVEIHLEGRCGGRMFDCRDVAFTVGEGEDHDIPIGIDKALEKMQREEQCILYLGPRYGFGEAGKPKFGIEPNAELIYEVTLKSFEKAKESW
notes: also called FKBP51FK2; not shown: glutathione S-transferase (GST) tag; vector stated only for the GR fragments (pGEX-4T3)

binding result [2]: no binding
B12: GST-FK1 (other)
chain: MTTDEGAKNNEESPTATVAEQGEDITSKKDRGVLKIVKRVGNGEETPMIGDKVYVHYKGKLSNGKKFDSSHDRNEPFVFSLGKGQVIKAWDIGVATMKKGEICHLLCKPEYAYGSAGSLPKIPSNATLFFEIELLDFKGEDLF
notes: also called FKBP51FK1; not shown: glutathione S-transferase (GST) tag; vector stated only for the GR fragments (pGEX-4T3)

More lines, now with the values behind:

B1: GST-GRCT (GST fusion of the carboxyl-terminus of GR) (other)
chain: CLVCSDEASGCHYGVLTCGSCKVFFKRAVEGQHNYLCAGRNDCIIDKIRRKNCPACRYRKCLQAGMNLEARKTKKKIKGIQQATTGVSQETSENPGNKTIVPATLPQLTPTLVSLLEVIEPEVLYAGYDSSVPDSTWRIMTTLNMLGGRQVIAAVKWAKAIPGFRNLHLDDQMTLLQYSWMFLMAFALGWRSYRQSSANLLCFAPDLIINEQRMTLPCMYDQCKHMLYVSSELHRLQVSYEEYLCMKTLLLLSSVPKDGLKSQELFDEIRMTYIKELGKAIVKREGNSSQNWQRFYQLTKLLDSMHEVVENLLNYCFQTFLDKTMSIEFPEMLAEIITNQIPKYSNGNIKKLLFHQK
notes: as for B5
binding result [1]: no binding

B3: GST-GRNT5 (other)
chain: EDFIELCTPGVIKQEKLGTVYCQASFPGANIIGNKMSAISVHGVSTSGGQMYHYDMNTASLSQQQDQKPI
notes: as for B5
binding result [1]: no binding

B4: GST-GRNT2 (other)
chain: SNAQQPDLSKAVSLSMGLYMGETETKVMGNDLGFPQQGQISLSSGETDLKLLEESIANLNRSTSVPENPK
notes: as for B5
binding result [1]: no binding

B6: GST-TPR4 (other)
chain: IYANMFKKFAEQDAKEEANKAMGKKTSEGVTNEKGTDSQAMEEEKPEGHV
modifications: also: GST tag fusion, linker not given here
notes: also called FKBP51TPR-4; not shown: glutathione S-transferase (GST) tag; vector stated only for the GR fragments (pGEX-4T3)
binding result [2]: no binding

B7: GST-GRNT: GST-fusion protein encoding the amino-terminus of GR (protein)
chain: MDSKESLTPGREENPSSVLAQERGDVMDFYKTLRGGATVKVSASSPSLAVASQSDSKQRRLLVDFPKGSVSNAQQPDLSKAVSLSMGLYMGETETKVMGNDLGFPQQGQISLSSGETDLKLLEESIANLNRSTSVPENPKSSASTAVSAAPTEKEFPKTHSDVSSEQQHLKGQTGTNGGNVKLYTTDQSTFDILQDLEFSSGSPGKETNESPWRSDLLIDENCLLSPLAGEDDSFLLEGNSNEDCKPLILPDTKPKIKDNGDLVLSSPSNVTLPQVKTEKEDFIELCTPGVIKQEKLGTVYCQASFPGANIIGNKMSAISVHGVSTSGGQMYHYDMNTASLSQQQDQKPIFNVIPPIPVGSENWNRCQGSGDDNLTSLGTLNFPGRTVFSNGYSSPSMRPDVSSPPSSSSTATTGPPPKL
modifications: left off: a dimerising Fc or GST
notes: GST-fusion protein encoding the amino-terminus of GR
pull-down (precipitation) of FKBP51 by GST-GR fragment, Western blot (FKBP51): can “pull-down”; also recorded: precipitated FKBP51

B9: GST-GRNT1 (other)
chain: MDSKESLTPGREENPSSVLAQERGDVMDFYKTLRGGATVKVSASSPSLAVASQSDSKQRRLLVDFPKGSV
notes: as for B5
binding result [1]: no binding

B13: GST-TPR1 (other)
chain: EMDTKEKLEQAAIVKEKGTVYFKGGKYMQAVIQYGKIVSWLEMEYGLSEK
modifications: also: GST tag fusion, linker not given here
notes: also called FKBP51TPR-1; not shown: glutathione S-transferase (GST) tag; vector stated only for the GR fragments (pGEX-4T3)
binding result [2]: no binding
